Test results taken from patent US20070060518A1 (MANNKIND, published 2007).
Read-outs that look alike come from different tables or passages of the source. Blank lines part the entries; values can stand above or below the binder they belong to. Numbered stars: 1 amine (or outer) side, 2 acyl side, 3 side chain; on linkers, the order of the positions; unused ones are H or OH. Square brackets hold non-standard residues; d marks the D form. Ends that are not written are not given here. O‑methyltyrosine = COc1ccc(C[C@H](N[*:1])C(=O)[*:2])cc1; Phg = N[C@H](C(=O)O)c1ccccc1; Nle = CCCC[C@H](N)C(=O)O; Nva = CCC[C@H](N)C(=O)O

Assays:
[1] = biological target: T1, HLA-A*0201 class I monomer on avidin-coated plates (iTopia Epitope Discovery System) (human); assay: iTopia affinity and off-rate assays (FIG. 19)
T1 construct: Bought kit (Beckman Coulter); also called A0201 restricted MHC Class 1 molecules; MHC monomer
Protocol: (§1) Avidin-coated microtiter plates containing class I monomer loaded with a so-called placeholder peptide were used to evaluate peptide binding, affinity and off-rate. […] Assay buffers, anti-MHC-FITC mAb and beta2-microglobulin and control peptides were also supplied with the kits. Binding Assay:
(§2) The plates were then incubated on the allele-specific monomer plates at 37° C. The plates were measured at multiple time points (0, 0.5, 1, 1.5, 2, 4, 6 and 8 hrs) for relative fluorescence intensity. The time required for 50% of the peptide to dissociate from the MHC monomer is defined as the T1/2 value (hrs).

[2] = biological target: T1, HLA-A*0201 class I monomer on …; assay: iTopia assays (FIG. 20)
[3] = biological target: T1, HLA-A*0201 class I monomer on …; assay: iTopia off-rate assay
Protocol: as §2

[4] = biological target: T1, HLA-A*0201 class I monomer on …; assay: iTopia assays (FIG. 21)
HLA-A*0201 on T2 cells [5] = biological target: T2, HLA-A*0201 on T2 cells (human); assay: T2 cell stability assay, flow cytometry
T2 construct: whole, on cells; also called HLA-A2

HLA-A*0201 on T2 cells [6] = biological target: T2, HLA-A*0201 on T2 cells; assay: T2 cell binding assay, flow cytometry
HLA-A*0201 on T2 cells [7] = biological target: T2, HLA-A*0201 on T2 cells; assay: T2 cell binding assay, flow cytometry; remark: listed apart in the source
HLA-A*0201 on T2 cells [8] = biological target: T2, HLA-A*0201 on T2 cells; assay: T2 cell stability assay, flow cytometry; remark: listed apart in the source
HLA-A*0201 on T2 cells [9] = biological target: T2, HLA-A*0201 on T2 cells; assay: T2 cell binding assay, flow cytometry; remark: listed apart in the source
[10] = biological target: T1, HLA-A*0201 class I monomer on …; assay: iTopia affinity and off-rate assays (FIG. 28)
Protocol: as §1, §2
(§3) In some cases, the reported values are the average of two determinations.

[11] = biological target: T1, HLA-A*0201 class I monomer on …; assay: iTopia affinity assay (FIG. 26)
Description: as §1, §3

[12] = biological target: T1, HLA-A*0201 class I monomer on …; assay: iTopia binding assay (FIG. 26)
Description: as §1
(§4) This assay measures the ability of individual peptides to bind HLA molecules under standardized optimal binding conditions. Monomer-coated plates were first stripped, releasing the placeholder peptide and leaving only the MHC heavy chain bound to the plate. Test peptides were then introduced under optimal folding conditions, along with the anti-MHC-FITC mAb. […] The anti-MHC-FITC mAb binds preferentially to a refolded MHC complex. Therefore, the fluorescence intensity resulting from each peptide was related to the peptide's ability to form complex with MHC molecule. Each peptide's binding was evaluated relative to the positive control peptide provided in the kit, and the results were expressed “% binding”.

[13] = biological target: T1, HLA-A*0201 class I monomer on …; assay: iTopia binding and affinity assays (FIG. 26)
Description: as §1, §4

B1: PSMA288-297 analog with Nva at PΩ (peptide)
peptide: GLPSIPVHPX
modifications: norvaline (Nva) at PΩ (P10)
notes: also called I297Nva
binding result [1]: binds

B5: SSX2 41-49 (A42I) (peptide)
peptide: KISEKIFYV
Stability (T1/2) (HLA-A*0201 on T2 cells [5]): 22.5 h
EC50 (HLA-A*0201 on T2 cells [6]): 8.8 µM
Relative affinity (1/RA) (HLA-A*0201 on T2 cells [6]): 1.7

B6: SSX2 41-49 (A42V, V49I) (peptide)
peptide: KVSEKIFYI
Relative affinity (1/RA) (HLA-A*0201 on T2 cells [7]): 1.1

B7: SSX2 41-49 (A42L, V49I) (peptide)
peptide: KLSEKIFYI
Relative affinity (1/RA) (HLA-A*0201 on T2 cells [7]): 2.6

B8: SSX2 41-49 (V49I) (peptide)
peptide: KASEKIFYI
Relative affinity (1/RA) (HLA-A*0201 on T2 cells [7]): 1

B9: SSX2 41-49 (A42M) (peptide)
peptide: KMSEKIFYV
Stability (T1/2) (HLA-A*0201 on T2 cells [5]): 22.5 h
EC50 (HLA-A*0201 on T2 cells [6]): 8.8 µM
Relative affinity (1/RA) (HLA-A*0201 on T2 cells [6]): 1.7

B10: SSX2 41-49 (K41(O-methyl Tyr)) (peptide)
peptide: [O‑methyltyrosine]ASEKIFYV
Stability (T1/2) (HLA-A*0201 on T2 cells [8]): 20 h
EC50 (HLA-A*0201 on T2 cells [9]): 19.5 µM
Relative affinity (1/RA) (HLA-A*0201 on T2 cells [9]): 0.8

B11: Prame 425-433 (L426Nva, L433Nle) (peptide)
peptide: S[Nva]LQHLIG[Nle]
notes: also called S{Nva}LQHLIG{Nle}; L426Nva L433Nle analog
Half-Life (T1/2) [3]: 16.9 h

B15: PRAME425-433 analog with Ala at PΩ (peptide)
peptide: SLLQHLIGA
fold change of ED50 against the native peptide [11]: > 10 fold

B17: PRAME425-433 analog with Lys at P1 (peptide)
peptide: KLLQHLIGL
notes: also called Lys P1 analog
fold change of ED50 against the native peptide [11]: ~6 fold

B24: SSX2 41-49 (K41(Phg)) (peptide)
peptide: [Phg]ASEKIFYV
Stability (T1/2) (HLA-A*0201 on T2 cells [8]): > 24 h
EC50 (HLA-A*0201 on T2 cells [9]): 5.83 µM
Relative affinity (1/RA) (HLA-A*0201 on T2 cells [9]): 2.5

B26: NY-ESO-1 157-165 (L158Nva, C165V) (peptide)
peptide: S[Nva]LMWITQV
notes: also called SNvaLMWITQV
Half-Life (T1/2) [3]: 17 h

The remaining lines, values ahead:

binding result [2]: binds
B2: PSMA288-297 analog with Trp at P3 and Nva at PΩ (peptide)
peptide: GLWSIPVHP[Nva]

Half-Life (T1/2) [3]: 14.7 h
B3: Tyrosinase 369-377 (V377Nva) (peptide)
peptide: YMDGTMSQX
modifications: norvaline (Nva) at position 377 (P9)

binding result [4]: binds
B4: PSMA288-297 Nva/W/V analog (Nva at P2, Trp at P3, Val at PΩ) (peptide)
peptide: G[Nva]WSIPVHPV

binding result [10]: binds
B12: PRAME425-433 S425T L426Nva L433Nle analog (peptide)
peptide: T[Nva]LQHLIG[Nle]
notes: also called T{Nva}LQHLIG{Nle}

binding result [1]: binds
B13: PSMA288-297 analog with Met at P2 (peptide)
peptide: GMPSIPVHPI

binding result [2]: binds
B14: PSMA288-297 analog with Trp at P3 and Val at PΩ (peptide)
peptide: GLWSIPVHPV

binding result [12]: binds
B16: PRAME425-433 analog with Ile at PΩ (peptide)
peptide: SLLQHLIGI

binding result [13]: binds
B18: PRAME425-433 analog with Ile at P2 (peptide)
peptide: SILQHLIGL

binding result [12]: binds
B19: PRAME425-433 analog with Val at PΩ (peptide)
peptide: SLLQHLIGV

binding result [13]: binds
B20: PRAME425-433 analog with Met at P2 (peptide)
peptide: SMLQHLIGL

binding result [13]: binds
B21: PRAME425-433 analog with Thr at P1 (peptide)
peptide: TLLQHLIGL

binding result [12]: binds
B22: PRAME425-433 analog with Val at P2 (peptide)
peptide: SVLQHLIGL

binding result [13]: binds
B23: PRAME425-433 analog with Tyr at P1 (peptide)
peptide: YLLQHLIGL

Half-Life (T1/2) [3]: 14.4 h
B25: Tyrosinase 369-377 (peptide)
peptide: YMDGTMSQV
